This note sets out measurements from article PMC8844826 (iScience, 2022).

Ends that are not written are not given here. TAMRA = 5 (and 6)-carboxytetramethylrhodamine

What is called Kd is the free concentration of one partner at which half of the binding sites on the other are occupied at equilibrium, for simple one-to-one binding. Higher therefore signals a looser complex.

The target in test [1] is T1, full length PSD-95 (FL-PSD-95, 1-724) (human, UniProt P78352 1-724).
T1 construct: construct 32M3C-PSD-95 FL 1-724 from Zeng et al. (2016a); A PreScission 3C site follows the tags; For the arrays 0.1 uM of 1 uM was labelled with Alexa 633 (maleimide); also called PSD protein 95; 32M3C-PSD-95 FL; source: E. coli BL21-DE3-pLysS, purified (HisTrap, SEC)
As to the kind of experiment: fluorescence polarisation; saturation binding: increasing protein, fixed fluorescently labeled peptide; 50 mM Tris (pH 8.0), 300 mM NaCl, 10 mM EDTA, 1 mM TCEP; 20 min on ice. Particulars: both partners purified.

In test [2] the target is T2, GST-Arc 195-364 (rat) (rat, UniProt Q63053 195-364).
T2 construct: rat Arc residues 195-364, Uniprot Q63053; GST is followed by a thrombin and a factor Xa site; the protein was eluted with glutathione and no cleavage is described; also called pGEX4T1-Arc 195-364; source: E. coli BL21-DE3-pLysS, purified (Glutathione Sepharose, SEC)
T2 sequence (looked up): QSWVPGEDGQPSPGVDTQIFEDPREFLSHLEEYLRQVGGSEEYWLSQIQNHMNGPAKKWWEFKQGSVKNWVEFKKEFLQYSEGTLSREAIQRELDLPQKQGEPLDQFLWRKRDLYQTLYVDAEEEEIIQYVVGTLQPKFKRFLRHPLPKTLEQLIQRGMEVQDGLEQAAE
The description is as above. The settings on record: both partners purified.

T1 sequence (P78352 whole entry): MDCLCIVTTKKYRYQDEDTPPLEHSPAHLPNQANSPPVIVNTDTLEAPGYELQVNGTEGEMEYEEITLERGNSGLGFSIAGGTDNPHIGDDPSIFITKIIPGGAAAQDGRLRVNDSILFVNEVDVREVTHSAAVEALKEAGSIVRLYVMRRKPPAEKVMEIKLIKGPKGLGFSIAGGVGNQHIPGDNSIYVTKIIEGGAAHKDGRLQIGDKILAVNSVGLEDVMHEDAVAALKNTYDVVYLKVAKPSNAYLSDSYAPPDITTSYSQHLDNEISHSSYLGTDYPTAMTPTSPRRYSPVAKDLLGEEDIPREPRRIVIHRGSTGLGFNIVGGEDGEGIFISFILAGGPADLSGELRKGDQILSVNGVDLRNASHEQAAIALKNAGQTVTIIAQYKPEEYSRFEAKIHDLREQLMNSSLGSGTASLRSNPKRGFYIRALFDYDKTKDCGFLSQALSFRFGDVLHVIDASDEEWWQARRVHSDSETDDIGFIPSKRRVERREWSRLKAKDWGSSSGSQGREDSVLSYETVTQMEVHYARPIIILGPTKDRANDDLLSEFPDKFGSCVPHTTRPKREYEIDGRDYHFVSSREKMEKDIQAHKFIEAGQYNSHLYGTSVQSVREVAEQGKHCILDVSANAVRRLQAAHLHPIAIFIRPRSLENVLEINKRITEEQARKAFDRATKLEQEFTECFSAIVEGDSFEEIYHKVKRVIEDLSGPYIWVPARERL

B1: TAMRA-G-A222ITRIPSYRYRYQRR236 (fluorescently labeled Stg A222-R236 peptide) (peptide)
peptide: {TAMRA}-GAITRIPSYRYRYQRR
notes: added glycine between TAMRA and A222; also called TMR labeled Stg_(A222-R236); source: synthetic peptide (in-house)
Turning to B1, the values for the Kd in test [1] and in test [2] were 14.9 ± 3 µM and 8.37 ± 1.25 µM, respectively.
